The data set relates to recombinant protein ACp5 (p5 cleavage site of the HIV protease inserted between amino acids 224 and 225 of the adenyl cyclase of B. pertussis).

Turning to wild-type protease of the HIV virus, the cleavage in vitro result is reported as “The cleavage of ACp5 by the HIV protease was also shown in vitro”; the “phenotype on McConkey maltose medium of DHT1 bacteria cotransformed with pKACp5 and pUCVIH” value is listed as “exhibit a Cya^- phenotype (white colonies on McConkey maltose medium) in the absence of protease inhibitors”.

Source of the values: patent publication US20030175735.
